Data published in the supplement of paper PMC11316812.
± gives the standard deviation of the averaged measurements.

Columns and labels:
[1] = tested on: MCF7; assay: percentage of EdU-negative (G0-arrested) nuclei per well, 72 h; higher = more G0 arrest; details: reference: sequence is the full UniProt precursor, the tested protein was the secreted form or ectodomain
[2] = tested on: hTERT-HMEC; assay: as above; details: reference: sequence is the full UniProt precursor, the tested protein was the secreted form or ectodomain
[3] = protein concentration 0.0225 µM
[4] = protein concentration 0.03125 µM
[5] = protein concentration 0.3125 µM
[6] = protein concentration 0.0065 µM
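Also: secreted proteins added to cultured cells, EdU pulse at the end, nuclei found by Hoechst imaging, EdU status from nuclear versus surrounding ring intensity ratio, PBS as neutral control.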

Row | Sequence | percentage of EdU-negative [1, 3] [%] | percentage of EdU-negative ([1]; protein concentration 0.225 µM) [%] | percentage of EdU-negative [2, 3] [%] | percentage of EdU-negative ([2]; protein concentration 0.225 µM) [%] | further results
1 | MVAGSDAGRALGVLSVVCLLHCFGFISCFSQQIYGVVYGNVTFHVPSNVPLKEVLWKKQKDKVAELENSEFRAFSSFKNRVYLDTVSGSLTIYNLTSSDEDEYEMESPNITDTMKFFLYVLESLPSPTLTCALTNGSIEVQCMIPEHYNSHRGLIMYSWDCPMEQCKRNSTSIYFKMENDLPQKIQCTLSNPLFNTTSSIILTTCIPSSGHSRHRYALIPIPLAVITTCIVLYMNGILKCDRKPDRTNSN | 27.3 ± 0.7 | 26.7 ± 1.6 | 5.39 ± 0.14 | 5.59 ± 0.33 | –
2 | MVAPGLVLGLVLPLILWADRSAGIGFRFASYINNDMVLQKEPAGAVIWGFGTPGATVTVTLRQGQETIMKKVTSVKAHSDTWMVVLDPMKPGGPFEVMAQQTLEKINFTLRVHDVLFGDVWLCSGQSNMQMTVLQIFNATRELSNTAAYQSVRILSVSPIQAEQELEDLVAVDLQWSKPTSENLGHGYFKYMSAVCWLFGRHLYDTLQYPIGLIASSWGGTPIEAWSSGRSLKACGVPKQGSIPYDSVTGPSKHSVLWNAMIHPLCNMTLKGVVWYQGESNINYNTDLYNCTFPALIEDWRETFHRGSQGQTERFFPFGLVQLSSDLSKKSSDDGFPQIRWHQTADFGYVPNPKMPNTFMAVAMDLCDRDSPFGSIHPRDKQTVAYRLHLGARALAYGEKNLTFEGPLPEKIELLAHKGLLNLTYYQQIQVQKKDNKIFEISCCSDHRCKWLPASMNTVSTQSLTLAIDSCHGTVVALRYAWTTWPCEYKQCPLYHPSSALPAPPFIAFITDQGPGHQSNVAK [Q9HAT2] | 24.9 ± 0.68 | 24.8 ± 0.63 | 5.13 ± 1 | 7.82 ± 1.7 | –
3 | MVAPKSHTDDWAPGPFSSKPQRSQLQIFSSVLQTSLLFLLMGLRASGKDSAPTVVSGILGGSVTLPLNISVDTEIENVIWIGPKNALAFARPKENVTIMVKSYLGRLDITKWSYSLCISNLTLNDAGSYKAQINQRNFEVTTEEEFTLFVYEQLQEPQVTMKSVKVSENFSCNITLMCSVKGAEKSVLYSWTPREPHASESNGGSILTVSRTPCDPDLPYICTAQNPVSQRSSLPVHVGQFCTDPGASRGGTTGETVVGVLGEPVTLPLALPACRDTEKVVWLFNTSIISKEREEAATADPLIKSRDPYKNRVWVSSQDCSLKISQLKIEDAGPYHAYVCSEASSVTSMTHVTLLIYRRLRKPKITWSLRHSEDGICRISLTCSVEDGGNTVMYTWTPLQKEAVVSQGESHLNVSWRSSENHPNLTCTASNPVSRSSHQFLSENICSGPERNTKLWIGLFLMVCLLCVGIFSWCIWKRKGRCSVPAFCSSQAEAPADTPEPTAGHTLYSVLSQGYEKLDTPLRPARQQPTPTSDSSSDSNLTTEEDEDRPEVHKPISGRYEVFDQVTQEGAGHDPAPEGQADYDPVTPYVTEVESVVGENTMYAQVFNLQGKTPVSQKEESSATIYCSIRKPQVVPPPQQNDLEIPESPTYENFT [Q9HBG7] | – | – | – | – | percentage of EdU-negative ([1]; protein concentration 0.02 µM): 25.2 ± 0.84%; percentage of EdU-negative ([1]; protein concentration 0.2 µM): 29.3 ± 0.77%; percentage of EdU-negative ([2]; protein concentration 0.02 µM): 4.82 ± 0.27%; percentage of EdU-negative ([2]; protein concentration 0.2 µM): 7.12 ± 0.12%
4 | MVATKTFALLLLSLFLAVGLGEKKEGHFSALPSLPVGSHAKVSSPQPRGPRYAEGTFISDYSIAMDKIHQQDFVNWLLAQKGKKNDWKHNITQREARALELASQANRKEEEAVEPQSSPAKNPSDEDLLRDLLIQELLACLLDQTNLCRLRSR | 26.1 ± 1.5 | 24.3 ± 2.4 | 4.89 ± 0.063 | 6.12 ± 0.68 | –
5 | MVDGVMILPVLIMIALPSPSMEDEKPKVNPKLYMCVCEGLSCGNEDHCEGQQCFSSLSINDGFHVYQKGCFQVYEQGKMTCKTPPSPGQAVECCQGDWCNRNITAQLPTKGKSFPGTQNFHLEVGLIILSVVFAVCLLACLLGVALRKFKRRNQERLNPRDVEYGTIEGLITTNVGDSTLADLLDHSCTSGSGSGLPFLVQRTVARQITLLECVGKGRYGEVWRGSWQGENVAVKIFSSRDEKSWFRETELYNTVMLRHENILGFIASDMTSRHSSTQLWLITHYHEMGSLYDYLQLTTLDTVSCLRIVLSIASGLAHLHIEIFGTQGKPAIAHRDLKSKNILVKKNGQCCIADLGLAVMHSQSTNQLDVGNNPRVGTKRYMAPEVLDETIQVDCFDSYKRVDIWAFGLVLWEVARRMVSNGIVEDYKPPFYDVVPNDPSFEDMRKVVCVDQQRPNIPNRWFSDPTLTSLAKLMKECWYQNPSARLTALRIKKTLTKIDNSLDKLKTDC | 26.7 ± 0.75 | 27.2 ± 0.41 | 5.41 ± 0.37 | 5.41 ± 1.3 | –
6 | MVFLPLKWSLATMSFLLSSLLALLTVSTPSWCQSTEASPKRSDGTPFPWNKIRLPEYVIPVHYDLLIHANLTTLTFWGTTKVEITASQPTSTIILHSHHLQISRATLRKGAGERLSEEPLQVLEHPRQEQIALLAPEPLLVGLPYTVVIHYAGNLSETFHGFYKSTYRTKEGELRILASTQFEPTAARMAFPCFDEPAFKASFSIKIRREPRHLAISNMPLVKSVTVAEGLIEDHFDVTVKMSTYLVAFIISDFESVSKITKSGVKVSVYAVPDKINQADYALDAAVTLLEFYEDYFSIPYPLPKQDLAAIPDFQSGAMENWGLTTYRESALLFDAEKSSASSKLGITMTVAHELAHQWFGNLVTMEWWNDLWLNEGFAKFMEFVSVSVTHPELKVGDYFFGKCFDAMEVDALNSSHPVSTPVENPAQIREMFDDVSYDKGACILNMLREYLSADAFKSGIVQYLQKHSYKNTKNEDLWDSMASICPTDGVKGMDGFCSRSQHSSSSSHWHQEGVDVKTMMNTWTLQKGFPLITITVRGRNVHMKQEHYMKGSDGAPDTGYLWHVPLTFITSKSDMVHRFLLKTKTDVLILPEEVEWIKFNVGMNGYYIVHYEDDGWDSLTGLLKGTHTAVSSNDRASLINNAFQLVSIGKLSIEKALDLSLYLKHETEIMPVFQGLNELIPMYKLMEKRDMNEVETQFKAFLIRLLRDLIDKQTWTDEGSVSERMLRSQLLLLACVHNYQPCVQRAEGYFRKWKESNGNLSLPVDVTLAVFAVGAQSTEGWDFLYSKYQFSLSSTEKSQIEFALCRTQNKEKLQWLLDESFKGDKIKTQEFPQILTLIGRNPVGYPLAWQFLRKNWNKLVQKFELGSSSIAHMVMGTTNQFSTRTRLEEVKGFFSSLKENGSQLRCVQQTIETIEENIGWMDKNFDKIRVWLQSEKLERM [Q9NZ08] | 28.5 ± 2.6 | 25.9 ± 1.9 | 5.43 ± 0.72 | 9.42 ± 1.9 | –
7 | MVGAMWKVIVSLVLLMPGPCDGLFRSLYRSVSMPPKGDSGQPLFLTPYIEAGKIQKGRELSLVGPFPGLNMKSYAGFLTVNKTYNSNLFFWFFPAQIQPEDAPVVLWLQGGPGGSSMFGLFVEHGPYVVTSNMTLRDRDFPWTTTLSMLYIDNPVGTGFSFTDDTHGYAVNEDDVARDLYSALIQFFQIFPEYKNNDFYVTGESYAGKYVPAIAHLIHSLNPVREVKINLNGIAIGDGYSDPESIIGGYAEFLYQIGLLDEKQKKYFQKQCHECIEHIRKQNWFEAFEILDKLLDGDLTSDPSYFQNVTGCSNYYNFLRCTEPEDQLYYVKFLSLPEVRQAIHVGNQTFNDGTIVEKYLREDTVQSVKPWLTEIMNNYKVLIYNGQLDIIVAAALTERSLMGMDWKGSQEYKKAEKKVWKIFKSDSEVAGYIRQAGDFHQVIIRGGGHILPYDQPLRAFDMINRFIYGKGWDPYVG [Q9H3G5] | – | – | – | – | percentage of EdU-negative ([1]; protein concentration 0.014 µM): 26.1 ± 4.2%; percentage of EdU-negative ([1]; protein concentration 0.14 µM): 29.1 ± 0.47%; percentage of EdU-negative ([2]; protein concentration 0.014 µM): 5.19 ± 0.19%; percentage of EdU-negative ([2]; protein concentration 0.14 µM): 6.64 ± 0.14%
8 | MVGKLKQNLLLACLVISSVTVFYLGQHAMECHHRIEERSQPVKLESTRTTVRTGLDLKANKTFAYHKDMPLIFIGGVPRSGTTLMRAMLDAHPDIRCGEETRVIPRILALKQMWSRSSKEKIRLDEAGVTDEVLDSAMQAFLLEIIVKHGEPAPYLCNKDPFALKSLTYLSRLFPNAKFLLMVRDGRASVHSMISRKVTIAGFDLNSYRDCLTKWNRAIETMYNQCMEVGYKKCMLVHYEQLVLHPERWMRTLLKFLQIPWNHSVLHHEEMIGKAGGVSLSKVERSTDQVIKPVNVGALSKWVGKIPPDVLQDMAVIAPMLAKLGYDPYANPPNYGKPDPKIIENTRRVYKGEFQLPDFLKEKPQTEQVE | 26.5 ± 0.46 | 25.4 ± 1.6 | 4.95 ± 1.4 | 7.95 ± 0.61 | –
9 | MVGKMWPVLWTLCAVRVTVDAISVETPQDVLRASQGKSVTLPCTYHTSTSSREGLIQWDKLLLTHTERVVIWPFSNKNYIHGELYKNRVSISNNAEQSDASITIDQLTMADNGTYECSVSLMSDLEGNTKSRVRLLVLVPPSKPECGIEGETIIGNNIQLTCQSKEGSPTPQYSWKRYNILNQEQPLAQPASGQPVSLKNISTDTSGYYICTSSNEEGTQFCNITVAVRSPSMNVALYVGIAVGVVAALIIIGIIIYCCCCRGKDDNTEDKEDARPNREAYEEPPEQLRELSREREEEDDYRQEEQRSTGRESPDHLDQ | 26.33 ± 0.14 | 28.18 ± 0.27 | 4.72 ± 0.17 | 5.86 ± 0.41 | –
10 | MVGPAPRRRLRPLAALALVLALAPGLPTARAGQTPRPAERGPPVRLFTEEELARYGGEEEDQPIYLAVKGVVFDVTSGKEFYGRGAPYNALTGKDSTRGVAKMSLDPADLTHDTTGLTAKELEALDEVFTKVYKAKYPIVGYTARRILNEDGSPNLDFKPEDQPHFDIKDEF [Q9UMX5] | – | – | – | – | percentage of EdU-negative [1, 4]: 22.8 ± 0.65%; percentage of EdU-negative [1, 5]: 23.5 ± 1.4%; percentage of EdU-negative [2, 4]: 4.98 ± 0.59%; percentage of EdU-negative [2, 5]: 6.64 ± 2.3%
11 | MVGTKAWVFSFLVLEVTSVLGRQTMLTQSVRRVQPGKKNPSIFAKPADTLESPGEWTTWFNIDYPGGKGDYERLDAIRFYYGDRVCARPLRLEARTTDWTPAGSTGQVVHGSPREGFWCLNREQRPGQNCSNYTVRFLCPPGSLRRDTERIWSPWSPWSKCSAACGQTGVQTRTRICLAEMVSLCSEASEEGQHCMGQDCTACDLTCPMGQVNADCDACMCQDFMLHGAVSLPGGAPASGAAIYLLTKTPKLLTQTDSDGRFRIPGLCPDGKSILKITKVKFAPIVLTMPKTSLKAATIKAEFVRAETPYMVMNPETKARRAGQSVSLCCKATGKPRPDKYFWYHNDTLLDPSLYKHESKLVLRKLQQHQAGEYFCKAQSDAGAVKSKVAQLIVIASDETPCNPVPESYLIRLPHDCFQNATNSFYYDVGRCPVKTCAGQQDNGIRCRDAVQNCCGISKTEEREIQCSGYTLPTKVAKECSCQRCTETRSIVRGRVSAADNGEPMRFGHVYMGNSRVSMTGYKGTFTLHVPQDTERLVLTFVDRLQKFVNTTKVLPFNKKGSAVFHEIKMLRRKKPITLEAMETNIIPLGEVVGEDPMAELEIPSRSFYRQNGEPYIGKVKASVTFLDPRNISTATAAQTDLNFINDEGDTFPLRTYGMFSVDFRDEVTSEPLNAGKVKVHLDSTQVKMPEHISTVKLWSLNPDTGLWEEEGDFKFENQRRNKREDRTFLVGNLEIRERRLFNLDVPESRRCFVKVRAYRSERFLPSEQIQGVVISVINLEPRTGFLSNPRAWGRFDSVITGPNGACVPAFCDDQSPDAYSAYVLASLAGEELQAVESSPKFNPNAIGVPQPYLNKLNYRRTDHEDPRVKKTAFQISMAKPRPNSAEESNGPIYAFENLRACEEAPPSAAHFRFYQIEGDRYDYNTVPFNEDDPMSWTEDYLAWWPKPMEFRACYIKVKIVGPLEVNVRSRNMGGTHRQTVGKLYGIRDVRSTRDRDQPNVSAACLEFKCSGMLYDQDRVDRTLVKVIPQGSCRRASVNPMLHEYLVNHLPLAVNNDTSEYTMLAPLDPLGHNYGIYTVTDQDPRTAKEIALGRCFDGTSDGSSRIMKSNVGVALTFNCVERQVGRQSAFQYLQSTPAQSPAAGTVQGRVPSRRQQRASRGGQRQGGVVASLRFPRVAQQPLIN | – | – | – | – | percentage of EdU-negative [1, 6]: 25.3 ± 0.34%; percentage of EdU-negative ([1]; protein concentration 0.065 µM): 25.9 ± 2%; percentage of EdU-negative [2, 6]: 4.85 ± 0.48%; percentage of EdU-negative ([2]; protein concentration 0.065 µM): 4.77 ± 1%
12 | MVKQIESKTAFQEALDAAGDKLVVVDFSATWCGPCKMIKPFFHSLSEKYSNVIFLEVDVDDCQDVASECEVKCMPTFQFFKKGQKVGEFSGANKEKLEATINELV | – | – | – | – | percentage of EdU-negative [1, 4]: 25.2 ± 1.2%; percentage of EdU-negative [1, 5]: 23.8 ± 1.9%; percentage of EdU-negative [2, 4]: 4.86 ± 0.3%; percentage of EdU-negative [2, 5]: 4.9 ± 0.23%
